Values joined by “and” are separate entries in the source; they are usually repeats but may differ in a detail not shown here. Identical values can stand only once.
T1: full-length β-catenin 1-781 (mouse, UniProt Q02248 1-781)
T1 construct: also called β-catenin FL; source: E. coli BL21 (DE3), purified (Ni-NTA, SEC)
T1 sequence (looked up): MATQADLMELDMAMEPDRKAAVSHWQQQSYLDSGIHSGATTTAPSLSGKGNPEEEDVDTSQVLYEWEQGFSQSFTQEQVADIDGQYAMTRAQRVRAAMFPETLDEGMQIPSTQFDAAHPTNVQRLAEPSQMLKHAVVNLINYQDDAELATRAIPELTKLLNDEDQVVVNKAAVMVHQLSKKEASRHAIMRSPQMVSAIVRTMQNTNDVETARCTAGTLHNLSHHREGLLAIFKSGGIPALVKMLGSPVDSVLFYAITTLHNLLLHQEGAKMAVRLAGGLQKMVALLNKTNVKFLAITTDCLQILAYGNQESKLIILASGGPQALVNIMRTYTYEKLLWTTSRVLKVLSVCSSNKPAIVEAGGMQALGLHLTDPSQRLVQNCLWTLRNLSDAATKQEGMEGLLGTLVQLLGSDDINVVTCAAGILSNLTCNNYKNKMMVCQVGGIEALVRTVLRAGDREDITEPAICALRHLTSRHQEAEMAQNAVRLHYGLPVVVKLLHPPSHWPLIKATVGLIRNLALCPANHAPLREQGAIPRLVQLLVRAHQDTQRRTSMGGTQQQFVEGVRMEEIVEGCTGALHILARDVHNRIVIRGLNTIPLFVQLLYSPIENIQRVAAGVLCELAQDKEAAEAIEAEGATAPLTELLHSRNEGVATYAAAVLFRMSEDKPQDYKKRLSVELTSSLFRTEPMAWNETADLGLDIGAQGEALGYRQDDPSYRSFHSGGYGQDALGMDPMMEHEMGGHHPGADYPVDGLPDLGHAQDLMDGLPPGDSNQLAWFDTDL

B1: E-cadherin C-terminal domain (residues 734-884) (domain or fragment)
chain: not shown
notes: The ITC methods name 'Trx-E-cadherin'; 15N-labelled for the HSQC titration; also called E-cadherin CTD; CTD; source: E. coli BL21 (DE3), purified (Ni-NTA, SEC); not shown: Trx, N-terminal, kept; His6, N-terminal, kept
B2: Ankyrin-G 24 ANK repeats (residues 38-855) (domain or fragment, UniProt O70511 38-855, looked up)
chain: KSDANASYLRAARAGHLEKALDYIKNGVDVNICNQNGLNALHLASKEGHVEVVSELLQREANVDAATKKGNTALHIASLAGQAEVVKVLVTNGANVNAQSQNGFTPLYMAAQENHLEVVRFLLDNGASQSLATEDGFTPLAVALQQGHDQVVSLLLENDTKGKVRLPALHIAARKDDTKAAALLLQNDTNADIESKMVVNRATESGFTPLHIAAHYGNINVATLLLNRAAAVDFTARNDITPLHVASKRGNANMVKLLLDRGAKIDAKTRDGLTPLHCGARSGHEQVVEMLLDRAAPILSKTKNGLSPLHMATQGDHLNCVQLLLQHNVPVDDVTNDYLTALHVAAHCGHYKVAKVLLDKKANPNAKALNGFTPLHIACKKNRIRVMELLLKHGASIQAVTESGLTPIHVAAFMGHVNIVSQLMHHGASPNTTNVRGETALHMAARSGQAEVVRYLVQDGAQVEAKAKDDQTPLHISARLGKADIVQQLLQQGASPNAATTSGYTPLHLSAREGHEDVAAFLLDHGASLSITTKKGFTPLHVAAKYGKLEVASLLLQKSASPDAAGKSGLTPLHVAAHYDNQKVALLLLDQGASPHAAAKNGYTPLHIAAKKNQMDIATSLLEYGADANAVTRQGIASVHLAAQEGHVDMVSLLLSRNANVNLSNKSGLTPLHLAAQEDRVNVAEVLVNQGAHVDAQTKMGYTPLHVGCHYGNIKIVNFLLQHSAKVNAKTKNGYTPLHQAAQQGHTHIINVLLQNNASPNELTVNGNTALAIARRLGYISVVDTLKVVTEEIMTTTTITEKHKMNVPETMNEVLDMS
notes: Ankyrin-G, 24 ANK repeats, residues 38-855; The ITC methods name 'Trx-AnkG R1-24'; also called AnkG R1-24; AnkG ANK repeats; source: E. coli BL21 (DE3), purified (Ni-NTA, SEC); not shown: Trx, N-terminal, kept; His6, N-terminal, kept

What was measured:
Settings in all cases: both partners purified
[1] = target: B2; experiment: ITC; E-cadherin proteins in the syringe (e.g. 200 μM Trx-E-cadherin) titrated into AnkG in the cell (e.g. 20 μM Trx-AnkG R1-24); 25 °C; 50 mM Tris, 100 mM NaCl, 1 mM EDTA, 1 mM DTT, pH 7.8; one-site binding model
[2] = target: T1, full-length β-catenin 1-781; experiment: SEC-MALS; analytical gel filtration with static light scattering; AnkG R1-24, E-cadherin CTD and β-catenin 1-781 mixed at 1:1:1, 2:1:1, 3:1:1 and 4:1:1 molar ratios; also E-cadherin CTD with β-catenin 1-781 alone
[3] = target: B2; experiment: SEC-MALS; FPLC coupled with static light scattering; 70 μM E-cadherin with 70, 140, 210 or 280 μM AnkG (molar ratios 1:1 to 1:4); Superdex 200 increase; 50 mM Tris, 100 mM NaCl, 1 mM EDTA, 1 mM DTT, pH 7.8
[4] = target: T2, E-cadherin CTD–β-catenin complex (mouse, UniProt P09803 734-884; Q02248 1-781); experiment: SEC-MALS; analytical gel filtration with static light scattering; AnkG R1-24, E-cadherin CTD and β-catenin 1-781 mixed at 1:1:1, 2:1:1, 3:1:1 and 4:1:1 molar ratios; also E-cadherin CTD with β-catenin 1-781 alone
T2 construct: Formed beforehand for the ITC titration to AnkG R1-24; in the light scattering experiment the three proteins were mixed together; source: E. coli BL21 (DE3), purified (Ni-NTA, SEC)
T2 sequence (P09803 734-884, one chain of several): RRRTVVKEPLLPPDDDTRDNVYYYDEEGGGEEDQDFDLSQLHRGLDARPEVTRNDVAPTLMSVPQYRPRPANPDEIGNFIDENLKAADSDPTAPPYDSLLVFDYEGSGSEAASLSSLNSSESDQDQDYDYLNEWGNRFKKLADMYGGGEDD

[5] = target: B1; experiment: SEC-MALS; FPLC coupled with static light scattering; 70 μM E-cadherin with 70, 140, 210 or 280 μM AnkG (molar ratios 1:1 to 1:4); Superdex 200 increase; 50 mM Tris, 100 mM NaCl, 1 mM EDTA, 1 mM DTT, pH 7.8

| Binder | Kd [1] [nM] | other results |
| --- | --- | --- |
| B1 | ~1300 | stoichiometry N [1]: ~0.22; binding result [2]: binds |
| PYDSLLVFDYEGSGS (domain or fragment, mouse, UniProt P09803 828-842, looked up, For the methyl-TROSY NMR fused to the N-terminus of AnkG R8-24; also called E-cadherin site-2; source: E. coli BL21 (DE3), purified (Ni-NTA, SEC); not shown: Trx, N-terminal, kept; His6, N-terminal, kept) [E-cadherin residues 828-842 (site-2)] | ~1900 |  |
| ESDQDQDYDYLNEWGN (domain or fragment, mouse, UniProt P09803 854-869, looked up, E-cadherin, mouse, residues 854-869; also called E-cadherin site-3; source: E. coli BL21 (DE3), purified (Ni-NTA, SEC); not shown: Trx, N-terminal, kept; His6, N-terminal, kept) [E-cadherin residues 854-869 (site-3)] | ~1800 |  |
| YYYDEEGGGEEDQDFD (domain or fragment, mouse, UniProt P09803 755-770, looked up, E-cadherin, mouse, residues 755-770; also called E-cadherin site-1; source: E. coli BL21 (DE3), purified (Ni-NTA, SEC); not shown: Trx, N-terminal, kept; His6, N-terminal, kept) [E-cadherin residues 755-770 (site-1)] | ~900 |  |
| E-cadherin 828-884 (including both site-2 and site-3) (domain or fragment, source: E. coli BL21 (DE3), purified (Ni-NTA, SEC); not shown: Trx, N-terminal, kept; His6, N-terminal, kept) not shown | ~1900 | stoichiometry N [3]: 1 |
| B2 |  | stoichiometry N [4]: 1 to 2 AnkG R1-24 per E-cadherin CTD and β-catenin; stoichiometry N [5]: 1 AnkG R1-24 per E-cadherin CTD and 2 AnkG R1-24 per E-cadherin CTD |
